This is an account of results in US20250325630A1, “HOMODIMER FUSION PROTEINS FOR TREATING ATOPIC DERMATITIS” (Intervet Inc., priority 2021, published 2025).

Changes are numbered by the printed parent chain.

Experiment [1] addresses T1, canine IL-4 (canine, UniProt O77762 25-132, biotin-labeled in the Octet assay (site not stated)).
T1 sequence (looked up): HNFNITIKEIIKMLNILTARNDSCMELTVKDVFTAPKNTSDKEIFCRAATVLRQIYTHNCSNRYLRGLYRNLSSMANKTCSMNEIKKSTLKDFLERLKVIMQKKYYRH
Kind of experiment: cell-based or functional assay.

In experiment [2] the target is T1, canine IL-4. Kind of experiment: cell-based or functional assay. The source holds these as a separate data set.
For experiment [3], the target named is T1, canine IL-4. Kind of experiment: BLI (Octet); summary table, rounded from Table 3. (In general: BLI is a label-free optical method that tracks binding on a fibre tip over time.)
Experiment [4] addresses T1, canine IL-4. Kind of experiment: BLI (Octet HTX), biotin-cIL-4 on SA biosensors, fusion protein in solution, 1:1 fit. The method, then: (§1) The binding constants for the cFc fusion proteins provided in Tables 3 and 4 below, were determined using OCTET® HTX. All kinetics measurements were performed by OCTET® HTX using SA® biosensors and DATA ACQUISITION® 12.0 software. 10 μg/mL of biotin-labeled antigen, either canine IL-4 (cIL-4) or canine IL-13 (cIL-13) were loaded onto the SAR biosensors for 120 seconds. Next, the biosensors were placed into 1×pH 7.0 TBS/Casein buffer for 60 seconds for the blocking phase. For the association phase, antigen loaded biosensors were placed into 2-fold serial dilutions from 1 μM down to 15.6 nM of the wild-type, the bispecific, or the FcRn-mutant receptor Fc-fusions that recognized the cIL-4 or cIL-13 antigen in 1×pH 7.0 TBS/Casein buffer for 30 seconds. The last well was buffer alone and that sensor was used for reference sensor subtraction. Finally, the biosensors were placed into 1×pH 7.0 TBS/Casein buffer for 120 seconds for the dissociation phase. The results were then analyzed using Data Analysis 12.0 software and the curves were fitted using a 1:1 binding model.

The target of experiment [5] is T2, canine IL-13 (canine, UniProt Q9N0W9 19-131, limits assumed, biotin-labeled in the Octet assay (site not stated)).
T2 sequence (looked up): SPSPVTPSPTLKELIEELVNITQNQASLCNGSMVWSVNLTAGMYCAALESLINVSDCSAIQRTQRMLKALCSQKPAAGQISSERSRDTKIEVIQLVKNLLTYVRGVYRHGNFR
Kind of experiment: cell-based or functional assay.

Experiment [6] deals with T2, canine IL-13. Kind of experiment: cell-based or functional assay. This is another data set of the same source.
Experiment [7] concerns the target T2, canine IL-13. Kind of experiment: BLI (Octet HTX), biotin-cIL-13 on SA biosensors, fusion protein in solution, 1:1 fit. The method, then: as §1
For experiment [8], the target named is T2, canine IL-13. Kind of experiment: BLI (Octet). As to the method:
as §1

Experiment [9] concerns the target T1, canine IL-4. Kind of experiment: BLI (Octet). As to the method: as §1
For experiment [10], the target named is T2, canine IL-13. Kind of experiment: BLI (Octet); summary table, rounded from Table 4.
In experiment [11] the target is T2, canine IL-13. Kind of experiment: cell-based or functional assay. The source holds these as a separate data set.

B1: cIL-4Rα-cIgGB-Fc (Fc fusion)
chain: VKVLHEPSCFSDYISTSVCQWKMDHPTNCSAELRLSYQLDFMGSENHTCVPENREDSVCVCSMPIDDAVEADVYQLDLWAGQQLLWSGSFQPSKHVKPRTPGNLTVHPNISHTWLLMWTNPYPTENHLHSELTYMVNVSNDNDPEDFKVYNVTYMGPTLRLAASTLKSGASYSARVRAWAQTYNSTWSDWSPSTTWLNYYEPWEQHLPPKRENGRVPRPPDCPKCPAPEMLGGPSVFIFPPKPKDTLLIARTPEVTCVVVDLDPEDPEVQISWFVDGKQMQTAKTQPREEQFNGTYRVVSVLPIGHQDWLKGKQFTCKVNNKALPSPIERTISKARGQAHQPSVYVLPPSREELSKNTVSLTCLIKDFFPPDIDVEWQSNGQQEPESKYRTTPPQLDEDGSYFLYSKLSVDKSRWQRGDTFICAVMHEALHNHYTQESLSHSPGK
notes: Homodimer held by hinge disulfides; made in CHO cells, purified on protein A; also called cIL-4Rα-cFc; cIL4Rα-cFc
What is called Kd is the free concentration of one partner at which half of the binding sites on the other are occupied at equilibrium, for simple one-to-one binding. A low value points to higher affinity. As usually defined, the koff is a measure of how fast the partners let go of each other. By kon is commonly meant the rate constant with which the complex forms. A low value points to slower complex formation. For B1, the “IL-4 IC50 (inhibition of cIL-4 mediated STAT6 phosphorylation in DH82 cells)” value in experiment [1] worked out at 84 pM. Also, the “IL-4 (IC50), summary table” value in experiment [2] came to 80 pM. Besides, binding in experiment [3] was put at a Kd of 1 pM. In experiment [4], this molecule registered a Kd of 1.18 pM, a koff of 8.3e-07 s⁻¹ and a kon of 703000 M⁻¹ s⁻¹.

B2: cIL-4Rα-13Rα1_ZW1-cFc (Fc fusion)
chain 1: B1 chain with L347Y, F403A, Y405V
chain 2: GGVAAPTETQPPVTNLSVSVENLCTVIWTWDPPEGASPNCTLRYFSHFDNKQDKKIAPETHRSKEVPLNERICLQVGSQCSTNESDNPSILVEKCTPPPEGDPESAVTELQCVWHNLSYMKCTWLPGRNTSPDTNYTLYYWHSSLGKILQCEDIYREGQHIGCSFALTNLKDSSFEQHSVQIVVKDNAGKIRPSFNIVPLTSHVKPDPPHIKRLFFQNGNLYVQWKNPQNFYSRCLSYQVEVNNSQTETNDIFYVEEAKCQNSEFEGNLEGTICFMVPGVLPDTLNTVRIRVRTNKLCYEDDKLWSNWSQAMSIGENTDPTPKRENGRVPRPPDCPKCPAPEMLGGPSVFIFPPKPKDTLLIARTPEVTCVVVDLDPEDPEVQISWFVDGKQMQTAKTQPREEQFNGTYRVVSVLPIGHQDWLKGKQFTCKVNNKALPSPIERTISKARGQAHQPSVYVLPPSREELSKNTVSLLCLIKDFFPPDIDVEWQSNGQQEPESKYLTWPPQLDEDGSYFLYSKLSVDKSRWQRGDTFICAVMHEALHNHYTQESLSHSPGK
notes: also called cIL4Rα-IL13Rα1_ZW1-cFc; cIL-4Rα-IL-13Rα1_ZW1-cFc
For the molecule B2, the “IL-4 IC50 (inhibition of cIL-4 mediated STAT6 phosphorylation in DH82 cells)” value in [1] is 46 pM. Besides, in experiment [5], the “IL-13 (IC50), summary table” value is 3000 pM. Moreover, in experiment [2], the “IL-4 (IC50), summary table” value stood at 50 pM. Further, the “IL-13 IC50 (inhibition of cIL-13 mediated STAT6 phosphorylation in DH82 cells)” value in experiment [6] stood at 3020 pM. Further, binding in [3] was characterised by a dissociation constant (Kd) of 10000 pM. In experiment [7], the Kd was determined as 415 pM, the koff stood at 3.91e-05 s⁻¹ and the kon came to 94400 M⁻¹ s⁻¹. For the same molecule, the “fold tighter binding than the unmodified IL-13Rα1-cFc” value in [8] worked out at 8 fold. For the same molecule, the “fold change of KD against the unmodified cIL-4Rα-cFc homodimer” value (“fold change of KD” for short) in [9] is about 10000 fold. Moreover, in experiment [4], binding was put at a Kd of 9850 pM, the koff was 0.00234 s⁻¹ and the kon was 237000 M⁻¹ s⁻¹. Also, the Kd in experiment [10] stood at 400 pM. In [11], the “fold change of the concentration that inhibits 50% of the cIL-13 mediated STAT6 phosphorylation in DH82 cells, against cIL-13Rα1-cFc” value came to 6 fold lower and the “fold change of the concentration that inhibits 50% of the cIL-13 mediated STAT6 phosphorylation in DH82 cells, against cIL-13Rα2-cFc” value is about 20 fold higher.

B3: cIL-4Rα-cIgGB-Fc-YTE (Fc fusion)
chain: B1 chain with L248Y, A250T, T252E
notes: Homodimer; also called cIL-4Rα-cFc-YTE
With B3, the “fold change of KD” value in experiment [9] was about 10 fold. Besides, in experiment [4], the affinity, expressed as Kd, was 11.1 pM; the off-rate (koff) came out at 9.23e-06 s⁻¹; the kon turned out to be 830000 M⁻¹ s⁻¹.

B4: cIL-4Rα-cIgGB-Fc-H (Fc fusion)
chain: B1 chain with N432H
notes: Homodimer; also called cIL-4Rα-cFc-H; cIL-4Rα-cFc-NH
For the molecule B4, the “fold change of KD” value in experiment [9] was about 100 fold. In addition, in experiment [4], the Kd was determined as 126 pM, the dissociation rate constant (koff) stood at 9.88e-05 s⁻¹ and the kon stood at 785000 M⁻¹ s⁻¹.

B5: cIL-13Rα2-cIgGB-Fc-YD (Fc fusion)
chain: SMLSNAEIKVNPPQDFEIVDPGYLGYLSLQWQPPLFPDNFKECTIEYELKYRNIDSENWKTIITKNLHYKDGFDLNKGIEAKINTLLPAQCTNGSEVRSSWAETTYWTSPQGNRETKIQDMDCVYYNWQYLVCSWKPGMGVHFDTNYQLFYWYEGLDHSAECTDYIKVNGKNMGCRFPYLESSDYKDFYICVNGSSESQPIRPSYFIFQLQNIVKPMPPDYLSLTVKNSEEINLKWNMPKGPIPAKCFIYEIEFTEDGTTWVTTTVENEIQITRTSNESQKLCFLVRSKVNIYCSDDGIWSEWSDEQCWKGDIWKETPKRENGRVPRPPDCPKCPAPEMLGGPSVFIFPPKPKDTLYIARDPEVTCVVVDLDPEDPEVQISWFVDGKQMQTAKTQPREEQFNGTYRVVSVLPIGHQDWLKGKQFTCKVNNKALPSPIERTISKARGQAHQPSVYVLPPSREELSKNTVSLTCLIKDFFPPDIDVEWQSNGQQEPESKYRTTPPQLDEDGSYFLYSKLSVDKSRWQRGDTFICAVMHEALHNHYTQESLSHSPGK
notes: Homodimer; also called cIL-13Rα2-cFc-YD
B5: in experiment [7], the affinity, expressed as Kd, was 0.44 pM; the koff was 5.07e-07 s⁻¹; the kon is 1.15e+06 M⁻¹ s⁻¹. Also, in experiment [8], the “fold decrease of KD against unmodified cIL-13Rα2-cFc” value was about 2 fold.

B6: cIL-13Rα2-cIgGB-Fc-YTE (Fc fusion)
chain: B5 chain with A359T, D361E
notes: Homodimer; also called cIL-13Rα2-cFc-YTE
In [7], B6 came in with a Kd of 0.432 pM, a koff of 5.04e-07 s⁻¹ and a kon of 1.17e+06 M⁻¹ s⁻¹. In addition, the “fold decrease of KD against unmodified cIL-13Rα2-cFc” value in experiment [8] was about 2 fold.

B7: cIL-13Rα2-cIgGB-Fc (Fc fusion)
chain: B5 chain with Y357L, D361T
notes: Homodimer; also called cIL-13Rα2-cFc; cIL13Rα2-cFc
Turning to B7, in experiment [5], the “IL-13 (IC50), summary table” value was found to be 200 pM. Besides, the “IL-13 IC50 (inhibition of cIL-13 mediated STAT6 phosphorylation in DH82 cells)” value in experiment [6] came to 165 pM. In [7], this molecule gave a Kd of 0.744 pM, a koff of 7.45e-07 s⁻¹ and a kon of 1e+06 M⁻¹ s⁻¹. This molecule also displayed a dissociation constant Kd in [10] of 0.7 pM.

B8: cIL-13Rα1-cIgGB-Fc-YTE (Fc fusion)
chain: B2 chain 2 with L361Y, A363T, T365E, L475T, L503R, W505T
notes: Homodimer; also called cIL-13Rα1-cFc-YTE
In [7], B8 returned a Kd of 16500 pM, a koff of 0.0011 s⁻¹ and a kon of 66500 M⁻¹ s⁻¹. Also, in experiment [8], the “fold decrease in affinity against unmodified cIL-13Rα1-cFc” value is about 4 fold.
